Results on 3 molecules are retold here after patent publication US20260209363A1 (Chugai, published 2026).

By Kd is commonly meant the free concentration of one partner at which half of the binding sites on the other are occupied at equilibrium, for simple one-to-one binding. A lower Kd goes with higher affinity. As usually defined, the koff is the first-order rate constant of dissociation. A low value points to a long-lived complex. For orientation: kon means the second-order rate constant of association. Read a low kon as slower complex formation.

One assay concerns the target T1, Mouse MOG (R&D system) (mouse, UniProt Q61885 29-156, limits assumed).
T1 construct: also called mouse soluble MOG; soluble MOG
T1 sequence (looked up): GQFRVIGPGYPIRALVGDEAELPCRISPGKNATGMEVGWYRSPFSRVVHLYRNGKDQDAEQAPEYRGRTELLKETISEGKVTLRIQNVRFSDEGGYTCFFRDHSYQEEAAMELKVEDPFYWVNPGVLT
The assay can be described thus: SPR (Biacore T200), antibody captured by anti-human Fc antibody, mouse MOG as analyte, 25 degrees C, no albumin. The method, then:
Binding activities of the antibodies produced in Example 10 against mouse MOG were assessed using Biacore T200 (Cytiva).
As the running buffer, 50 mM Na Phosphate (pH 7.4), 150 mM NaCl, 0.05% Tween 20, and 0.005% NaN₃ was used, and the assessment was performed at 25 degrees C. First, anti-human Fc antibody (Cytiva) was used as a ligand-capturing molecule. Anti-human Fc antibody (Cytiva) was solid-phased on a Series S Sensor Chip CM4 (Cytiva) using an Amine Coupling Kit (Cytiva). Antibody solutions prepared using the running buffer was allowed to interact with this CM4 sensor chip to capture approximately 480 RU of the antibody. Mouse MOG (R&D system) was diluted to 0, 10, 40, 160, and 640 nM with the running buffer, and then bound to the captured antibody. The chip was regenerated using 3 M MgCl₂, and measurements were performed by repeatedly capturing antibodies. Dissociation constant (KD) of the respective antibodies for mouse MOG was calculated using Biacore T200 Evaluation Software 2.0. Specifically, the association rate constant ka (L/mol/s) and the dissociation rate constant kd (1/s) were calculated by global fitting of the sensorgrams obtained by measurement with the 1:1 Langmuir binding model, and the dissociation constant KD (mol/L) was calculated from these values.
In general terms: SPR reads the build-up and loss of mass on a sensor chip optically.

Assay [1] deals with T2, His-tagged mouse MOG (8536-MO, R&D Systems) (mouse, UniProt Q61885 29-156, limits assumed).
T2 construct: Bought; also called mouse soluble MOG; not shown: His tag
T2 sequence (looked up): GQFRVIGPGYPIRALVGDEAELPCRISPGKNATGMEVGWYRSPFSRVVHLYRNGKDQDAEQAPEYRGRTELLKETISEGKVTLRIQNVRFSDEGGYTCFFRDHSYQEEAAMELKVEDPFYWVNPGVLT
The assay can be described thus: Gyrolab xP immunoassay of antibody-antigen complex in C57BL/6J mouse plasma (albumin present), 2 nM antibody, 9 nM His-tagged mouse MOG. How it is done:
First, to bind the albumin-binding domain to albumin in plasma, each of the anti-mouse MOG antibodies mentioned above were diluted to 8 nM using C57BL/6J mouse plasma, and then incubated at room temperature for 40 minutes. Next, for binding of the anti-mouse MOG antibody to the target antigen, one equivalent of His-tagged mouse MOG (8536-MO, R&D Systems) diluted to 38 nM in mouse plasma was added to the antibody solutions, and then the solutions were incubated at room temperature for 1 hour 25 minutes.
To detect the antibody-antigen complexes, first, the anti-delta GK antibody (AF647-anti-delta GK) was labeled using an Alexa flour 647 labeling kit (A20186, Thermo Fisher Scientific) according to the attached protocols. […] (the final concentrations were 2 nM for the antibody, 9 nM for His-tagged mouse MOG, and 67 nM for AF647-anti-delta GK).
Measurement of antigen-antibody complexes were performed using Gyrolab xP. For the measurements using Gyrolab xP, Gyrolab Bioaffy 200 (P0004180, Gyros Protein Technologies) was used as the measurement disc. Biotinylated anti-His-tagged antibody (BAM050, R&D Systems) diluted to 10 micro g/mL with PBS 0.05% Tween 20 was added to the measurement disc, and then solid-phased on the reaction layer in the disc. A mixed solution of the labeled anti-delta GK antibody, anti-mouse MOG antibody (albumin switch molecule), and mouse MOG, incubated as described above, was added to the disc, and the anti-mouse MOG antibody-mouse MOG-AF647-anti-delta GK complex was captured by the solid-phased antibody. The amount of the captured complex was detected by the fluorescence signal of AF647 (Detect PMT 25%). The fluorescence signal of AF647 was analyzed by Gyro Evaluator (version 3.6.2.30, Gyros Protein Technologies).

B1: ABD094(H/L)-MOG//IC17 (bispecific antibody, human IgG1, kappa)
heavy 1: LAEAKEAANAELDSYGVSDFYKRLIDKAKTVEGVEALKDAILAALPRVTLRESGPTLVKPTQTLTLTCTFSGFSLSTSGVGVGWIRQPPGKALEWLALIFWDDDSHYSPSLKSRLTITKDTSKNQVVLTMTNMDPVDTATYYCARYYFGSGSYFPSYWYFDLWGRGTLVTVSSASTKGPSVFPLAPSSKSTSGGTAALGCLVEDYFPEPVTVSWNSGALTSGVHTFPAVLQSSGLYSLSSVVTVPSSSLGTQTYICNVNHKPSNTKVDERVEPKSCDKTHTCPPCPAPELRRGPSVFLFPPKPKDTLMISRTPEVTCVVVDVSHEDPEVKFNWYVDGVEVHNAKTKPREEQYNSTYRVVSVLTVLHQDWLNGKEYKCKVSNKALPAPIEKTISKAKGQPREPQVCTLPPSREEMTKNQVSLSCAVKGFYPSDIAVEWESNGQPENNYKTTPPVLDSDGSFFLVSKLTVDKSRWQQGNVFSCSVMHEALHNHYTQKSLSLSP
light 1: not shown
heavy 2: not shown
light 2: QVQLQQSGPQLVRPGASVKISCKASGYSFTSYWMHWVNQRPGQGLEWIGMIDPSYSETRLNQKFKDKATLTVDKSSSTAYMQLSSPTSEDSAVYYCALYGNYFDYWGQGTTLTVSSASVAAPSVFIFPPSDEQLKSGTASVVCLLNNFYPREAKVQWKVDNALQSGNSQESVTEQDSKDSTYSLSSTLTLSKADYEKHKVYACEVTHQGLSSPVTKSFNRGEC
notes: also called ABD094(H/L)-MOG307//IC17; anti-MOG albumin switch molecule
In the assay with Mouse MOG (R&D system), B1 gave an equilibrium dissociation constant (Kd) of 1.91 nM, an off-rate constant (koff) of 1.39e-05 s⁻¹ and a kon of 7260 M⁻¹ s⁻¹. Moreover, in assay [1], the “decrease in the signal derived from the complex, compared to MOG//IC17” value (“decrease in the signal derived” for short) is 90%.

B2: ABD094(H/L).N02-MOG//IC17 (bispecific antibody, human IgG1, kappa)
heavy 1: LAEAKEAANAELDSYGVSDFYKRLIDKAKTVEGVEALKDAILAALPGGGGSRVTLRESGPTLVKPTQTLTLTCTFSGFSLSTSGVGVGWIRQPPGKALEWLALIFWDDDSHYSPSLKSRLTITKDTSKNQVVLTMTNMDPVDTATYYCARYYFGSGSYFPSYWYFDLWGRGTLVTVSSASTKGPSVFPLAPSSKSTSGGTAALGCLVEDYFPEPVTVSWNSGALTSGVHTFPAVLQSSGLYSLSSVVTVPSSSLGTQTYICNVNHKPSNTKVDERVEPKSCDKTHTCPPCPAPELRRGPSVFLFPPKPKDTLMISRTPEVTCVVVDVSHEDPEVKFNWYVDGVEVHNAKTKPREEQYNSTYRVVSVLTVLHQDWLNGKEYKCKVSNKALPAPIEKTISKAKGQPREPQVCTLPPSREEMTKNQVSLSCAVKGFYPSDIAVEWESNGQPENNYKTTPPVLDSDGSFFLVSKLTVDKSRWQQGNVFSCSVMHEALHNHYTQKSLSLSP
light 1: not shown
heavy 2: not shown
light 2: QVQLQQSGPQLVRPGASVKISCKASGYSFTSYWMHWVNQRPGQGLEWIGMIDPSYSETRLNQKFKDKATLTVDKSSSTAYMQLSSPTSEDSAVYYCALYGNYFDYWGQGTTLTVSSASVAAPSVFIFPPSDEQLKSGTASVVCLLNNFYPREAKVQWKVDNALQSGNSQESVTEQDSKDSTYSLSSTLTLSKADYEKHKVYACEVTHQGLSSPVTKSFNRGEC
notes: ABD094 linked via N02 linker at VH and VL N-termini of the MOG arm; also called ABD094.N02(H/L)-MOG//IC17
In the assay with Mouse MOG (R&D system), B2 registered a dissociation constant (Kd) of 0.0607 nM, an off-rate constant (koff) of 3.46e-07 s⁻¹ and a kon of 5700 M⁻¹ s⁻¹. Further, the “decrease in the signal derived” value in assay [1] is 79%.

B3: ABD094(H/L).N10-MOG//IC17 (bispecific antibody, human IgG1, kappa)
heavy 1: LAEAKEAANAELDSYGVSDFYKRLIDKAKTVEGVEALKDAILAALPGRVTLRESGPTLVKPTQTLTLTCTFSGFSLSTSGVGVGWIRQPPGKALEWLALIFWDDDSHYSPSLKSRLTITKDTSKNQVVLTMTNMDPVDTATYYCARYYFGSGSYFPSYWYFDLWGRGTLVTVSSASTKGPSVFPLAPSSKSTSGGTAALGCLVEDYFPEPVTVSWNSGALTSGVHTFPAVLQSSGLYSLSSVVTVPSSSLGTQTYICNVNHKPSNTKVDERVEPKSCDKTHTCPPCPAPELRRGPSVFLFPPKPKDTLMISRTPEVTCVVVDVSHEDPEVKFNWYVDGVEVHNAKTKPREEQYNSTYRVVSVLTVLHQDWLNGKEYKCKVSNKALPAPIEKTISKAKGQPREPQVCTLPPSREEMTKNQVSLSCAVKGFYPSDIAVEWESNGQPENNYKTTPPVLDSDGSFFLVSKLTVDKSRWQQGNVFSCSVMHEALHNHYTQKSLSLSP
light 1: not shown
heavy 2: not shown
light 2: QVQLQQSGPQLVRPGASVKISCKASGYSFTSYWMHWVNQRPGQGLEWIGMIDPSYSETRLNQKFKDKATLTVDKSSSTAYMQLSSPTSEDSAVYYCALYGNYFDYWGQGTTLTVSSASVAAPSVFIFPPSDEQLKSGTASVVCLLNNFYPREAKVQWKVDNALQSGNSQESVTEQDSKDSTYSLSSTLTLSKADYEKHKVYACEVTHQGLSSPVTKSFNRGEC
notes: ABD094 linked via N10 linker (G) at VH and VL N-termini of the MOG arm; also called ABD094.N10(H/L)-MOG//IC17; ABD094(H/L).N10-MOG307//IC17
B3: in the assay with Mouse MOG (R&D system), binding was put at a Kd of 5.53 nM, the koff came out at 9.46e-06 s⁻¹ and the kon is 1710 M⁻¹ s⁻¹. The “decrease in the signal derived” value in assay [1] came to 83%.
